Tests used:
[1] = tested on: anti-G4 antibody clone 1H6 (mouse); assay: fluorescence polarization; conditions: FP: 50 mM Tris-HCl pH 7.5, 50 mM KCl, 1 mM MgCl2, 1 mM DTT, 0.1 mM EDTA, 10 nM oligo, 30 min RT, read at 25 C; Trp quenching: same buffer, 500 nM APE1, 20 C
[2] = tested on: G4-forming KRAS oligo (32R), unlabeled (DNA, G4) AGGGCGGTGTGGGAAGAGGGAAGAGGGGGAGG; assay: UV-Vis absorption titration, Scatchard plot; conditions: 50 mM KCl; 10 mM Tris-HCl pH 7.5, 1 mM EDTA, RT; 4 µM TMPyP4, oligo 0-1.8 µM; specific site
APE1 WT [3] = target: T1, APE1 WT (human, UniProt P27695 1-318); assay: fluorescence polarization; 50 mM KCl, 1 mM MgCl2; FP: 50 mM Tris-HCl pH 7.5, 50 mM KCl, 1 mM MgCl2, 1 mM DTT, 0.1 mM EDTA, 10 nM oligo, 30 min RT, read at 25 C; Trp quenching: same buffer, 500 nM APE1, 20 C; conditions: protein: recombinant; label: 5'-6-FAM; parallel G4 (CD), prefolded in 50 mM KCl
T1 sequence (P27695 whole entry): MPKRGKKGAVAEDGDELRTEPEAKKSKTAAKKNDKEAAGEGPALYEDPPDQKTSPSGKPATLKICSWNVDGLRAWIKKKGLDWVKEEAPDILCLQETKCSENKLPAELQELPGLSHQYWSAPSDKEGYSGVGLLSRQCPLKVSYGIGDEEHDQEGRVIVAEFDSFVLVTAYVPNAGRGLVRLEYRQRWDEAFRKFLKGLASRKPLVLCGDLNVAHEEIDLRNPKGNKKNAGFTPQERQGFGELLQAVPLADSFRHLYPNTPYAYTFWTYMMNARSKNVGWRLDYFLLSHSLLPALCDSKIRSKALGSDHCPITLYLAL

APE1 H309A = APE1 H309A (human, UniProt P27695 1-318, H309A); assay: as above; conditions: protein: recombinant; label: 5'-6-FAM; parallel G4 (CD), prefolded in 50 mM KCl
Sequence of APE1 H309A (P27695 whole entry H309A): as the sequence (P27695 whole entry) above, with H309A counted along it

APE1 NΔ42 = APE1 NΔ42 (human, UniProt P27695 43-318, del1-42); assay: as above; conditions: protein: recombinant; label: 5'-6-FAM; parallel G4 (CD), prefolded in 50 mM KCl
Sequence of APE1 NΔ42 (P27695 43-318, stated change not applied): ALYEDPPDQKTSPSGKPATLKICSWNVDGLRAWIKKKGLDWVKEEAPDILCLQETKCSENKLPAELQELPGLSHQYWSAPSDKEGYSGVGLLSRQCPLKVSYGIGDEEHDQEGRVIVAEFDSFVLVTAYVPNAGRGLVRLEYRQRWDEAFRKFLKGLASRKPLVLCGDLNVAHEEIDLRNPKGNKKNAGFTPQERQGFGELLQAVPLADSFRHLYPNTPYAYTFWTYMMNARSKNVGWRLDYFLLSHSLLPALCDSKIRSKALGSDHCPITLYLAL

GST-APE1 1-42 = target: T2, GST-APE1 1-42 (human, UniProt P27695 1-42); assay: fluorescence polarization; 50 mM KCl, 1 mM MgCl2; no measurable affinity; FP: 50 mM Tris-HCl pH 7.5, 50 mM KCl, 1 mM MgCl2, 1 mM DTT, 0.1 mM EDTA, 10 nM oligo, 30 min RT, read at 25 C; Trp quenching: same buffer, 500 nM APE1, 20 C; conditions: protein: recombinant; tags: GST; label: 5'-6-FAM; parallel G4 (CD), prefolded in 50 mM KCl
T2 chain: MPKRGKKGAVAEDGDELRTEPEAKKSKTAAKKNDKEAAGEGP

APE1 WT [4] = target: T1, APE1 WT; assay: tryptophan fluorescence quenching (Scatchard); 500 nM APE1, 50 mM KCl, 1 mM MgCl2, 20 C; FP: 50 mM Tris-HCl pH 7.5, 50 mM KCl, 1 mM MgCl2, 1 mM DTT, 0.1 mM EDTA, 10 nM oligo, 30 min RT, read at 25 C; Trp quenching: same buffer, 500 nM APE1, 20 C; conditions: protein: recombinant; parallel G4 (CD), prefolded in 50 mM KCl
APE1 WT [5] = target: T1, APE1 WT; assay: competition (fluorescence polarization; printed as EC50); 640 nM APE1, 10 nM 6-FAM G4-forming KRAS oligo as probe; FP: 50 mM Tris-HCl pH 7.5, 50 mM KCl, 1 mM MgCl2, 1 mM DTT, 0.1 mM EDTA, 10 nM oligo, 30 min RT, read at 25 C; Trp quenching: same buffer, 500 nM APE1, 20 C; conditions: protein: recombinant; parallel G4 (CD), prefolded in 50 mM KCl
APE1 WT [6] = target: T1, APE1 WT; assay: fluorescence polarization; 50 mM KCl, 1 mM MgCl2; no measurable affinity; FP: 50 mM Tris-HCl pH 7.5, 50 mM KCl, 1 mM MgCl2, 1 mM DTT, 0.1 mM EDTA, 10 nM oligo, 30 min RT, read at 25 C; Trp quenching: same buffer, 500 nM APE1, 20 C; conditions: protein: recombinant; label: 5'-6-FAM; no parallel G4 by CD

AGGGCGGTGTGGGAAGAGGGAAGAGGGGGAGG [G4-forming KRAS oligo (32R), 6-FAM]
Kd [1]: 0.5 nM

C[n+]1ccc(-c2c3nc(c(-c4cc[n+](C)cc4)c4ccc([nH]4)c(-c4cc[n+](C)cc4)c4nc(c(-c5cc[n+](C)cc5)c5ccc2[nH]5)C=C4)C=C3)cc1
Kd [2]: 11 nM

AGGGCGGTGTGGGAAGAGGGAAGAGGGGGAGG (structured_DNA) [G4-forming KRAS oligo (32R), 6-FAM]
Kd (APE1 WT [3]): 31 ± 3 nM | Kd (APE1 H309A): 152 ± 25 nM | Kd (APE1 NΔ42): 313 ± 12 nM | binding result (GST-APE1 1-42): no binding

AGGGCGGTGTGGGAAGAGGGAAGAGGGGGAGG (structured_DNA) [G4-forming KRAS oligo (32R), unlabeled]
Kd (APE1 WT [4]): 12 nM | IC50 (APE1 WT [5]): 2300 ± 1500 nM

AGTTCGGTGTGTTAAGAGTTAAGAGTTGGAGG (ssDNA) [non-G4-forming KRAS oligo, 6-FAM]
binding result (APE1 WT [6]): no binding

From article PMC8990529
